The test system of series [1] is Arxula adeninivorans LS3 Tannase I (Atan1p), SEQ ID NO: 3. Briefly: Tannase assay with rhodanine, KM determination with tannin. In kind it is biochemical. The note with it: tannin solution 0,05-0,75 mg/ml, 15 min at 30°C; Lineweaver-Burk plot; read-out: KM-Wert (Tannin). As for the experimental part:
(§1) Der Nachweis der Tannase mit Hilfe des Rhodanins, wurde nach einer Methode von Sharma et al. (Sharma S, Bhat TK, Dawra RK (2000) A spectrophotometric method for assay of tannase using Rhodanine. Anal. Biochem. 279: 85-89, 2000) durchgeführt.
(§2) Als Test-Kontrolle wurden 450 µl Puffer und 50 µl eingeengter Kulturüberstand zusammenpipettiert. Als Blank-Kontrolle wurden 250 µl der Substratlösung und 250 µl Puffer zusammengegeben. Diese drei verschiedenen Ansätze wurden anschließend für 5 Min bei 30°C inkubiert. […] Nach anschließender Inkubation für 5 Min bei 30°C wurden weitere 200 µl 0,5 M KOH zugegeben. Nach wiederholter Inkubation bei 30°C für 5 Min wird die Absorbtion der verschiedenen Ansätze bei 520 nm im Spektrophotometer (UV160-A/Shimadzu) gegen Wasser gemessen. Die Absorption kann nach folgender Formel berechnet werden: ΔA520nm = (ATest-ABlank)-(AKontrolle-ABlank) [formula]
(§3) Mit Hilfe einer Eichkurve wurde dann die entstandene Gallatmenge ermittelt. Einheiten/Enzym = ((μmol gebildetes Gallat/min)*(Vf))/((0, 05)) [formula] Vf = Verdünnungsfaktor 0,05 = eingesetztes Probevolumen (in Milliliter) Eine Einheit ist definiert als µmol gebildetes Gallat pro Minute.
Zur Bestimmung des KM-Wertes wurde zu je 50 µl Tannase 250 µl Tanninlösung in Konzentrationen von 0,05 mg/ml bis 0,75 mg/ml zugegeben, alles 15 Min bei 30°C inkubiert und die Tannaseaktivität wie beschrieben ermittelt. […]

The target in series [2] is T1, Arxula adeninivorans LS3 Tannase II (Atan2p), SEQ ID NO: 4 (Blastobotrys adeninivorans, UniProt Q5GMI6).
T1 sequence (Q5GMI6 29-448): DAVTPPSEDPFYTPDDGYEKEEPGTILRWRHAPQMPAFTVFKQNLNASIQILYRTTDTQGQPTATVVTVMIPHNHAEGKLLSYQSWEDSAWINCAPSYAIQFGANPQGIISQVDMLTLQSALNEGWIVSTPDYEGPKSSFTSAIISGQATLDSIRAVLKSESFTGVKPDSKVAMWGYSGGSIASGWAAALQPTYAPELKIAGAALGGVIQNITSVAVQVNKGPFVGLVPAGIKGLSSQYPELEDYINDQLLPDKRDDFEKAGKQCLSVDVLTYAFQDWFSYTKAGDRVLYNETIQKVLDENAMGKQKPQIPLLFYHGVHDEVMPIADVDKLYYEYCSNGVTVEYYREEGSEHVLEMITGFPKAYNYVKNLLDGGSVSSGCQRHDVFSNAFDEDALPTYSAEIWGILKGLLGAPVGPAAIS
The description is as above. The format is biochemical. To be noted: tannin solution 0,05-0,75 mg/ml, 15 min at 30°C; Lineweaver-Burk plot; read-out: KM-Wert (Tannin). As to the method: as §1, §2, §3
Zur Bestimmung des KM-Wertes wurde zu je 50µl Tannase-Probe 250µl Tanninlösung in Konzentrationen von 0,05 mg/ml bis 0,75 mg/ml zugegeben, alles 15 Min bei 30°C inkubiert und die Tannaseaktivität gemessen. […]

Substrate in series [3]: CCCCCCCCCC(=O)Oc1ccc([N+](=O)[O-])cc1
Briefly: Lipase assay with p-nitrophenyl ester, native enzyme. In kind it is biochemical, Arxula adeninivorans LS3. The note with it: other: native lipase; pH 7.5; 30.0 °C. As to the method: (§4) Für diese Bestimmung wurde eine frische Stammlösung (3mM […] in 10 ml Propanol durch 10 Min vortexen lösen) angesetzt. Für den Messansatz wurden 850 µl 0,05 M Na-Phosphat-Puffer pH 7,5 und 100 µl der Stammlösung gemischt und anschließend 50 µl Probelösung zugegeben. Als Kontrolle wurden 900 µl Puffer und 100 µl Stammlösung zusammengegeben. Beide Ansätze wurden für 5-10 Min bei 30°C inkubiert und anschließend 1 ml Aceton zum Abstoppen der Reaktion zugegeben. Danach wurde die Absorption bei 410 nm im Spektrometer (UV160-A/Shimadzu) gegen Wasser gemessen: Die Enzymaktivität kann dann nach folgender Formel berechnet werden: Einheiten/ml Enzym = ((ΔA410nm/min Test-ΔA410nm/min Blank)*(Vf))/((14, 800)*(0, 05)) [formula] Vf = Verdünnungsfaktor 14800 I mol^-1 cm^-1= Extinktionskoeffizient von p-Nitrophenol bei 410nm (Quinn et al. 1982) 0,05 = eingesetztes Probevolumen (in Milliliter) Eine Einheit ist definiert als µmol gebildetes p-Nitrophenol pro Minute.
(§5) Da Atan2p eine sehr hohe Homologie zu Lipasen aufweist, wurde A. adeninivorans G1211/pAL-ALEU2m-ATAN2 parallel auf sekretorische Lipase-Aktivität mit p-Nitrophenyl-Caprate geprüft. Dazu erfolgte eine Anzucht in HMM + 2% Glukose bzw. HMM + 2% Xylitol, Bedingungen unter denen das native ATAN2-Gen nicht exprimiert wird, d. h. auch kein natives sekretorisches Atan2p auftritt. […]

Substrate in series [4]: CCCCCCCCCC(=O)Oc1ccc([N+](=O)[O-])cc1
Briefly: Lipase assay with p-nitrophenyl ester, recombinant enzyme. The format is biochemical, Arxula adeninivorans. To be noted: other: recombinant lipase; pH 7.5; 30.0 °C. As to the method: as §4, §5

For three molecules, Km and Vmax results are on record in patent EP1763578B1, “TANNASE” (priority 2004, dated 2006).

For Tannin, the Km in series [1] came to 150 µM; in series [2], 1100 µM.

B1: Tannase II (Atan2p nativ, native Lipase) secreted by A. adeninivorans LS3, SEQ ID NO: 4 (Blastobotrys adeninivorans) (protein)
chain: DAVTPPSEDPFYTPDDGYEKEEPGTILRWRHAPQMPAFTVFKQNLNASIQILYRTTDTQGQPTATVVTVMIPHNHAEGKLLSYQSWEDSAWINCAPSYAIQFGANPQGIISQVDMLTLQSALNEGWIVSTPDYEGPKSSFTSAIISGQATLDSIRAVLKSESFTGVKPDSKVAMWGYSGGSIASGWAAALQPTYAPELKIAGAALGGVIQNITSVAVQVNKGPFVGLVPAGIKGLSSQYPELEDYINDQLLPDKRDDFEKAGKQCLSVDVLTYAFQDWFSYTKAGDRVLYNETIQKVLDENAMGKQKPQIPLLFYHGVHDEVMPIADVDKLYYEYCSNGVTVEYYREEGSEHVLEMITGFPKAYNYVKNLLDGGSVSSGCQRHDVFSNAFDEDALPTYSAEIWGILKGLLGAPVGPAAIS
Turning to B1, in series [3], the Michaelis-Menten constant (Km) was found to be 400 µM and the Vmax was 0,043 µmol x min^-1.

B2: Tannase II (Atan2p rekombinant, rekombinante Lipase) secreted by A. adeninivorans G1211/pAL-ALEU2m-ATAN2, SEQ ID NO: 4 (Blastobotrys adeninivorans) (protein)
chain: DAVTPPSEDPFYTPDDGYEKEEPGTILRWRHAPQMPAFTVFKQNLNASIQILYRTTDTQGQPTATVVTVMIPHNHAEGKLLSYQSWEDSAWINCAPSYAIQFGANPQGIISQVDMLTLQSALNEGWIVSTPDYEGPKSSFTSAIISGQATLDSIRAVLKSESFTGVKPDSKVAMWGYSGGSIASGWAAALQPTYAPELKIAGAALGGVIQNITSVAVQVNKGPFVGLVPAGIKGLSSQYPELEDYINDQLLPDKRDDFEKAGKQCLSVDVLTYAFQDWFSYTKAGDRVLYNETIQKVLDENAMGKQKPQIPLLFYHGVHDEVMPIADVDKLYYEYCSNGVTVEYYREEGSEHVLEMITGFPKAYNYVKNLLDGGSVSSGCQRHDVFSNAFDEDALPTYSAEIWGILKGLLGAPVGPAAIS
Turning to B2, in series [4], the Km was 710 µM and the Vmax is on record as 0,036 µmol x min^-1.

Usually Km stands for the concentration of substrate that gives half-maximal velocity.
